Reference: patent publication US20090042805A1

Target: other caspases
Assay: cell-based or functional assay

inhibition of the cleavage of AMC substrates by human recombinant caspases (cross-reaction): < 20%
Binder: Ac-VDVAD-aldehyde [Ac-VDVAD-cho]
